The values that follow come from article PMC8701324, “Structural Insight into the Mechanism of PALB2 Interaction with MRG15” (Genes, 2021).

The term Ki denotes the dissociation constant of the complex between target and ligand, obtained from inhibition or displacement.

For the test, the target named is MRG15 MRG domain, amino acids 155-323, Q9UBU8-2. Briefly: competition assay (fluorescence anisotropy, displacement of FAM-PALB2 from MRG). To be noted: chain shown with the change; 10 nM WT FAM-PALB2 peptide; parent: 9.8 ±2.6. (In fluorescence polarisation assays a small probe gives low polarisation when free and higher when bound to something large.)
MRG15 MRG domain, amino acids 155-323, Q9UBU8-2, sequence (Q9UBU8 194-362): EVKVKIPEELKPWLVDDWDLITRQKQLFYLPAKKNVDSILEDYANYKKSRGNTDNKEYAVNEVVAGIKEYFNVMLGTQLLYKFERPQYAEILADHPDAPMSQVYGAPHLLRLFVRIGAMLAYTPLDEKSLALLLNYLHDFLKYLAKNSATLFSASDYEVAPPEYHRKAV

As to MLSLKQLLSFLSITDFQLPDEDFGTLKLEKVKSC [WT PALB2^597-630 peptide P621T], the Ki is 1.7 nM.

For MLSLKQLLSFLSITDFQLSDEDFGPLKLEKVKSC [WT PALB2^597-630 peptide P615S], the inhibition constant (Ki) worked out at 52.8 nM.

For the molecule MLSLKQLLSFLSITDFQLPHEDFGPLKLEKVKSC [WT PALB2^597-630 peptide D616H], the Ki was determined as 23.2 nM.
